Tested on: HUVECs
Test: HUVECs adhesion to plates coated with βig-h3, its fas-1 domains or mutants
Format: cell-based, human
Conditions: 10 μg/ml protein coated on plate; attached cells by absorbance at 405 nm; control BSA
Method: Cell adhesion assay was performed according to the method described by Kim, J.-E. et al., J. Biol. Chem., 277:4615946165, 2002. For this purpose, 10 μg/ml of each of the recombinant proteins (βig-h3 His-β-b, βig-h3 D-I, βig-h3 D-II, βig-h3 D-III and βig-h3 D-IV) prepared in Example 1 was placed into a flat-bottomed 96-well ELISA (enzyme-linked immunosorbent assay) plate (Costar, Corning Inc., NY) and then incubated overnight at 4° C., to coat the surface of the plate. As a control, 2% BSA was coated on the plate. Then, the plate was treated with PBS (phosphate-buffered saline) containing 2% BSA, and blocked at room temperature for one hour.
Meanwhile, HUVECs (human umbilical vein endothelial cells; Clonetics, San Diego, Calif.) were incubated in EGM medium (Clonetics, San Diego, Calif.) containing 2% FBS (Fetal Bovine Serum) under a condition of 37° C. and 5% CO2. The incubated cells were suspended in medium at a density of 3×10^5 cells/ml, and 0.1 ml of the cell suspension was added to each well of the plate. Next, the cells were incubated at 37° C. for 30 minutes and washed one time with PBS buffer to remove cells which had not been attached to the plate. Attached cells were added with 50 mM citrate buffer (pH 5.0) containing 3.75 mM p-nitrophenyl-N-acetyl β-D-glycosaminide and 0.25% Triton X-100, and incubated at 37° C. for one hour. Thereafter, 50 mM glycine buffer (pH 10.4) containing 5 mM EDTA was added to block the activity of the enzyme. The absorbance was measured at a 405-nm in a Bio-Rad model 550 microplate reader. Here, the higher the number of cells adhered to the plate, the higher the absorbance.
Each of the deletion mutants was generated by PCR using a cDNA template encoding the fourth fas-1 domain (SEQ ID NO: 5) (Kim, J.-E. et al., J. Biol. Chem., 275:30907-30915, 2000). Each of the PCR-amplified DNA fragments was cloned into the EcoRV/Xhol sites of the pET-29b(+) vector (Novagen; Madison, Wis.). The mutations were confirmed by sequence analysis, and the deletion mutants were expressed and purified according to a prior method (Kim, J.-E., et al., J. Cell. Biochem., 77:169-178, 2000). Thereafter, the cell adhesion activity of each of the deletion mutants was tested in the same manner as in Example 2.
Previously, the present inventors reported that an YH motif, which contains tyrosine-histidine residues highly conserved in the fragment corresponding to amino acids 548-614 of SEQ ID NO: 1, and several leucine and isoleucine residues adjacent to the tyrosine-histidine residues, binds to the αvβ5 integrin (Kim, J.-E., et al., J. Biol. Chem., 277:46159-46165, 2002). Thus, the present inventors suspected that the YH motif may also interact with the αvβ3 integrin to mediate endothelial cell adhesion. For this reason, in the present invention, the tyrosine-histidine residues conserved in the fas-1 domains, and/or the leucine and isolucine residues adjacent to the tyrosine-histidine residues, were substituted in various combinations by alanine or serine (Kim, J.-E., et al., J. Biol. Chem. 277:4615946165, 2002)(see FIG. 4b). The amino acid sequences of the prepared YH motif mutants are shown in SEQ ID NO: 17 to SEQ ID NO: 22. The mutations were confirmed by sequence analysis. Then, the substitution mutants were expressed and purified according to a known method (Kim, J.-E., et al., J. Cell. Biochem., 77:169-178, 2000). The substitution mutants were tested for their cell adhesion activity according to the same manner as in Example 2.

B1: βig-h3: recombinant human βig-h3 protein that expresses all of four fas-1 domains; biotinylated form used in binding assay (protein)
chain: YQRKICGKSTVISYECCPGYEKVPGEKGCPAALPLSNLYETLGVVGSTTTQLYTDRTEKLRPEMEGPGSFTIFAPSNEAWASLPAEVLDSLVSNVNIELLNALRYHMVGRRVLTDELKHGMTLTSMYQNSNIQIHHYPNGIVTVNCARLLKADHHATNGVVHLIDKVISTITNNIQQIIEIEDTFETLRAAVAASGLNTMLEGNGQYTLLAPTNEAFEKIPSETLNRILGDPEALRDLLNNHILKSAMCAEAIVAGLSVETLEGTTLEVGCSGDMLTINGKAIISNKDILATNGVIHYIDELLIPDSAKTLFELAAESDVSTAIDLFRQAGLGNHLSGSERLTLLAPLNSVFKDGTPPIDAHTRNLLRNHIIKDQLASKYLYHGQTLETLGGKKLRVFVYRNSLCIENSCIAAHDKRGRYGTLFTMDRVLTPPMGTVMDVLKGDNRFSMLVAAIQSAGLTETLNREGVYTVFAPTNEAFRALPPRERSRLLGDAKELANILKYHIGDEILVSGGIGALVRLKSLQGDKLEVSLKNNVVSVNKEPVAEPDIMATNGVVHVITNVLQPPANRPQERGDELADSALEI
  endothelial cell (HUVECs) adhesion activity: mediated the adhesion of endothelial cells

Reference: patent US7919464B2, “Use of a peptide that interacts with αvβ3 integrin of endothelial cell” (Kyungpook National University Industry-Academic Cooperation …, priority 2003, dated 2011)
